This assay has as its target T1, ubiquitin monomer (S. cerevisiae (yeast lysate), UniProt P0CG63 1-76).
T1 construct: mature; Endogenous monomer of the yeast lysate, seen by western blot in the pull-down experiment; also called monoubiquitin (free, in yeast lysate)
Description: pull-down from yeast lysate with biotinylated TR-TUBE and streptavidin beads, anti-ubiquitin western blot. On the procedure:
For Ub-ProT assay of yeast extracts, 30 OD₆₀₀ units of log-phase cells were harvested and lysed with glass beads in 300 μl of lysis buffer (50 mM Tris-HCl [pH 7.5], 100 mM NaCl, 10% glycerol, 10 μM MG132, 10 mM iodoacetamide, and 1× complete protease inhibitor cocktail [Roche, EDTA-free]). After centrifugation, the supernatant (100 μg) was incubated with TR-TUBE (10 μg) for 1 h at 4° C. Next, TR-TUBE-bound polyubiquitylated proteins were incubated with Dynabeads MyOne Streptavidin C1 (1 mg, Life Technologies) for 45 min at 4° C. The beads were washed three times with PBS-T, and then incubated in 100 μl of 50 mM AMBC, 0.01% Rapigest SF, and trypsin (1.5 μg) overnight at 37° C. […] After the beads were washed with PBS-T, the polyubiquitin chains were selectively eluted by 30-min incubation with 1× NuPAGE LDS sample buffer. The samples were directly subjected to electrophoresis on NuPAGE gels in order to avoid aggregation of polyubiquitin chains.
The inventors of the present invention next investigated the mean lengths of substrate-attached polyubiquitin chains in yeast lysate. To the knowledge of the inventors of the present invention, the actual chain lengths of polyubiquitylated proteins in vivo have not been previously determined. In this experiment, the inventors of the present invention used a drug-sensitive pdr5 mutant to determine the effect of a proteasome inhibitor, MG132. […]
For orientation: Immunoblotting shows a protein as a band on a membrane.

T1 sequence (P0CG63 1-76 limits assumed): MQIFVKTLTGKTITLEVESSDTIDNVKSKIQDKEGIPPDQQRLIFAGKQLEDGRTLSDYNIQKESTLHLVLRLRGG

B1: trypsin-resistant tandem ubiquitin binding entity (TR-TUBE) (designed binder)
chain: MRGCHHHHHHGMASMTGGQQMGDIGGGGSGGGVNPQLQNPEVAFQQQLEQLSAMGFLNAEANLQALIATGGDINAAIEALLGSQPSGGGGSGGGVNPQLQNPEVAFQQQLEQLSAMGFLNAEANLQALIATGGDINAAIEALLGSQPSGGGGSGGGVNPQLQNPEVAFQQQLEQLSAMGFLNAEANLQALIATGGDINAAIEALLGSQPSGGGGSGGGVNPQLQNPEVAFQQQLEQLSAMGFLNAEANLQALIATGGDINAAIEALLGSQPSGGGGSGGGVNPQLQNPEVAFQQQLEQLSAMGFLNAEANLQALIATGGDINAAIEALLGSQPSGGGGSGGGVNPQLQNPEVAFQQQLEQLSAMGFLNAEANLQALIATGGDINAAIEALLGSQPSGGGGS
modifications: Cys residue upstream of the hexahistidine tag biotinylated with EZ-link Maleimide-PEG2-Biotin
notes: also called 6x TR-TUBE; biotinylated TR-TUBE
B1: the binding result was “no binding”.
